Test results from patent US11156615B2 (priority 2015, dated 2021).
Residue numbers refer to the chain shown, from its start. Numbers in names are those of the source.

B1: ttGGBP17C.19: affinity-tuning mutant, 17C background, SEQ ID NO: 77 (protein)
chain: MKQLNIGVAIYKFDDTCMTGVRNAMTAEAQGKAKLNMVDSQNSQPTQNDQVDLFITKKMNALAINPVDRTAAGTIIDKAKQANIPVVFFNREPLPEDMKKWDKVYYVGAKAEQSGILQGQIMADYWKAHPEADKNHDGVMQYVMLMGQPGHQDAILRTQYSIQTVKDAGIKVQELAKDYANWDRVTAHDKMAAWLSSFGDKIEAVFANNDDMALGAIEALKSAGYFTGNKYIPVVGVDATAPGIQAIKDGTLLGTVLDDAKNQAKATFNIAYELAQGITPTKDNIGYDITDGKYVWIPYKKITKDNISDAEQGGSHHHHHH
modifications: ttGGBP17C.19 (affinity-tuning mutant, 17C background (Table 6) with signal peptide replaced with M and GGSHHHHHH at C-terminus)
B2: ttGGBP182C.2.0⋅Acrylodan: Acrylodan conjugate of ttGGBP W182C with Q148E+R91K double mutation (SEQ ID NO: 88) (conjugate)
chain: B1 chain with C17F, R91K, Q148E, W182C, D258N
modifications: Acrylodan conjugate; ttGGBP182C.2.0 (affinity-tuning mutant, 182C background (Table 6) with signal peptide replaced with M and GGSHHHHHH at C-terminus)
B3: ttGGBP182C.2.0: affinity-tuning mutant, 182C background (R91K, Q148E), SEQ ID NO: 88 and 298 (protein)
chain: B1 chain with C17F, R91K, Q148E, W182C, D258N
modifications: ttGGBP182C.2.0 (affinity-tuning mutant, 182C background (Table 6) with signal peptide replaced with M and GGSHHHHHH at C-terminus)
B4: ttGGBP182C.2.6: affinity-tuning mutant, 182C background, SEQ ID NO: 93 (protein)
chain: B1 chain with C17F, R91K, Q148E, H151N, W182C, D258N
modifications: ttGGBP182C.2.6 (affinity-tuning mutant, 182C background (Table 6) with signal peptide replaced with M and GGSHHHHHH at C-terminus)
B5: ttGGBP182C.2.1: affinity-tuning mutant, 182C background, SEQ ID NO: 89 (protein)
chain: B1 chain with C17F, R91K, Q148E, A154S, W182C, D258N
modifications: ttGGBP182C.2.1 (affinity-tuning mutant, 182C background (Table 6) with signal peptide replaced with M and GGSHHHHHH at C-terminus)
B6: ttGGBP182C.2.5: affinity-tuning mutant, 182C background, SEQ ID NO: 92 (protein)
chain: B1 chain with C17F, R91K, Q148E, H151Q, W182C, D258N
modifications: ttGGBP182C.2.5 (affinity-tuning mutant, 182C background (Table 6) with signal peptide replaced with M and GGSHHHHHH at C-terminus)
B7: ttGGBP182C.2.3: affinity-tuning mutant, 182C background, SEQ ID NO: 90 (protein)
chain: B1 chain with C17F, R91K, Q148E, A154N, W182C, D258N
modifications: ttGGBP182C.2.3 (affinity-tuning mutant, 182C background (Table 6) with signal peptide replaced with M and GGSHHHHHH at C-terminus)
B8: ttGGBP17C.21: affinity-tuning mutant, 17C background, SEQ ID NO: 79 (protein)
chain: B1 chain with D258A
modifications: ttGGBP17C.21 (affinity-tuning mutant, 17C background (Table 6) with signal peptide replaced with M and GGSHHHHHH at C-terminus)
B9: ttGGBP182C.2.8: affinity-tuning mutant, 182C background, SEQ ID NO: 95 (protein)
chain: B1 chain with D15N, C17F, R91K, Q148E, W182C, D258N
modifications: ttGGBP182C.2.8 (affinity-tuning mutant, 182C background (Table 6) with signal peptide replaced with M and GGSHHHHHH at C-terminus)
B10: ttGGBP182C.2.4: affinity-tuning mutant, 182C background, SEQ ID NO: 91 (protein)
chain: B1 chain with C17F, R91K, Q148E, A154M, W182C, D258N
modifications: ttGGBP182C.2.4 (affinity-tuning mutant, 182C background (Table 6) with signal peptide replaced with M and GGSHHHHHH at C-terminus)
B11: ttGGBP182C.7: affinity-tuning mutant, 182C background, SEQ ID NO: 101 (protein)
chain: B1 chain with C17F, R91K, Q148S, W182C, D258N
modifications: ttGGBP182C.7 (affinity-tuning mutant, 182C background (Table 6) with signal peptide replaced with M and GGSHHHHHH at C-terminus)
B12: ttGGBP182C: ttGGBP cys mutant, SEQ ID NO: 61 (protein)
chain: B1 chain with C17F, W182C, D258N
modifications: ttGGBP182C (ttGGBP cys mutant with signal peptide replaced with M and GGSHHHHHH at C-terminus)
B13: ttGGBP182C.2.7: affinity-tuning mutant, 182C background, SEQ ID NO: 94 (protein)
chain: B1 chain with C17F, R91K, Q148E, H151F, W182C, D258N
modifications: ttGGBP182C.2.7 (affinity-tuning mutant, 182C background (Table 6) with signal peptide replaced with M and GGSHHHHHH at C-terminus)
B14: ttGGBP182C.2.9: affinity-tuning mutant, 182C background, SEQ ID NO: 96 (protein)
chain: B1 chain with C17F, R91K, Q148E, A154F, W182C, D258N
modifications: ttGGBP182C.2.9 (affinity-tuning mutant, 182C background (Table 6) with signal peptide replaced with M and GGSHHHHHH at C-terminus)

assay: Glucose binding: isothermal fluorescence titrations, ratiometric (appKd) and monochromatic (trueKd) fits; parameters: key to Glucose appKd / Glucose trueKd: nb, no bonding; settings: Badan conjugate; dichromatic ratiometry; room temperature
Excerpt: 2 For a single glucose-binding site, the fractional saturation is given by
[formula] where ^apoIλ2 and ^satIλ2 are the emission intensities of the monochromatic signal at wavelength λ2 of the ligand-free and ligand-bound protein, respectively.

Molecule	Glucose appKd
B1	nb^e

same assay, conditions: Badan conjugate; monochromatic titration curves; room temperature

Molecule	Glucose trueKd
B1	nb^e

same assay, conditions: glucose; fit of ratiometric emission signal (figure legends); read-out: appKd

Molecule	Kd
B2	4.5 mM

same assay, conditions: glucose; monochromatic fits at 475 nm and 545 nm (FIG. 11); read-out: trueKd

Molecule	Kd
B2	6 mM

same assay, conditions: in ttGGBP182C⋅Acrylodan

Molecule	decrease in glucose affinity
B2	2.6 fold

same assay, conditions: read-out: Glucose appKd; Acrylodan conjugate; dichromatic ratiometry; room temperature

Molecule	Kd
B3	4.5 mM
B4	19.2 mM
B5	3 mM
B6	10.8 mM
B7	16.3 mM

same assay, conditions: read-out: Glucose appKd; Badan conjugate; dichromatic ratiometry; room temperature

Molecule	Kd
B8	61 mM

same assay, conditions: read-out: Glucose trueKd; Acrylodan conjugate; monochromatic titration curves; room temperature

Molecule	Kd
B3	6 mM
B4	17.9 mM
B5	4.1 mM
B6	13 mM
B7	19 mM

same assay, conditions: read-out: Glucose trueKd; Badan conjugate; monochromatic titration curves; room temperature

Molecule	Kd
B8	69 mM

assay: Galactose binding: isothermal fluorescence titrations of conjugates; parameters: key to Galactose trueKd: nb, no bonding; settings: Acrylodan conjugate; S > 1, selective for glucose

Molecule	S, selectivity = trueKd(galactose)/trueKd(glucose)
B9	1.8
B3	3.1
B4	2.9
B5	3.2
B6	1.6
B7	10.9

same assay, conditions: Badan conjugate; monochromatic titration curves; room temperature

Molecule	Galactose trueKd
B8	nb
B1	nb^e

same assay, conditions: read-out: Galactose trueKd; Acrylodan conjugate; monochromatic titration curves; room temperature

Molecule	Kd
B10	4.5 mM
B3	18.5 mM
B11	1.1 mM
B4	52.6 mM
B5	13.1 mM
B6	20.3 mM
B12	3.3 mM

assay: Thermostability: mid-point thermal denaturation temperature (Tm) from temperature-dependent fluorescence (Roche LightCycler); format: physicochemical; settings: Acrylodan conjugate; apo-protein
Excerpt: Protein (un)folding is monitored by binding of SYPRO to the unfolded state as a function of temperature. Fluorescence intensity increases upon binding of SYPRO by the unfolded state.
Panels A-C: ttGBP182C.2.0-Imm0; Panels D-F: ttGBP182C.2.0-Imm1 (see FIG. 13). (A) Solution (Tm=347.6K). (B) Immobilized on Nickel-nitriloacetic acid (Ni-NTA) beads (Tm=346.7K). (C) Reconstituted, desiccated Ni-NTA beads (Tm=347.6K). (D) Fluorescence response of ttGGBP5.2 Imm1 immobilized on NHS-functionalized agarose beads. Data was collected on a Roche LightCycler real-time PCS instrument, recording emission intensities at 488 nm and 510 nm as a function of temperature in a 384-well microtiter plate. […] Temperature melts of twelve different wells. Apo protein thermostability as reported by the denaturation mid-point temperature is 349 K, similar to the protein free in solution. […] (F) Representative Langmuir ligand-binding curve extracted from the three-dimensional data.
Temperatures were advanced in 1K steps. […] Under these experimental photobleaching was not observed.

Molecule	apoTm
B9	343 K
B10	346 K
B3	346 K
B11	346 K
B13	346 K
B4	347 K
B14	345 K
B5	328 K
B6	346 K
B12	347 K
B7	346 K

same assay, conditions: Badan conjugate; apo-protein

Molecule	apoTm
B8	345 K
B1	344 K

same assay, conditions: GGBP homologs

Molecule	mid-point thermal denaturation temperature (Tm)
ecGGBP: glucose-galactose binding protein from Escherichia coli, SEQ ID NO: 1 [reference compound]	322 K
